Values quoted from earlier work as cited in PMC7060279.

Key:
TLR4/MD2 (Homo sapiens) = TLR4/MD2 (Homo sapiens) (UniProt O00206)
TLR4 (Homo sapiens) = TLR4 (Homo sapiens) (UniProt O00206)
Chain of TLR4 (Homo sapiens) (O00206 24-839): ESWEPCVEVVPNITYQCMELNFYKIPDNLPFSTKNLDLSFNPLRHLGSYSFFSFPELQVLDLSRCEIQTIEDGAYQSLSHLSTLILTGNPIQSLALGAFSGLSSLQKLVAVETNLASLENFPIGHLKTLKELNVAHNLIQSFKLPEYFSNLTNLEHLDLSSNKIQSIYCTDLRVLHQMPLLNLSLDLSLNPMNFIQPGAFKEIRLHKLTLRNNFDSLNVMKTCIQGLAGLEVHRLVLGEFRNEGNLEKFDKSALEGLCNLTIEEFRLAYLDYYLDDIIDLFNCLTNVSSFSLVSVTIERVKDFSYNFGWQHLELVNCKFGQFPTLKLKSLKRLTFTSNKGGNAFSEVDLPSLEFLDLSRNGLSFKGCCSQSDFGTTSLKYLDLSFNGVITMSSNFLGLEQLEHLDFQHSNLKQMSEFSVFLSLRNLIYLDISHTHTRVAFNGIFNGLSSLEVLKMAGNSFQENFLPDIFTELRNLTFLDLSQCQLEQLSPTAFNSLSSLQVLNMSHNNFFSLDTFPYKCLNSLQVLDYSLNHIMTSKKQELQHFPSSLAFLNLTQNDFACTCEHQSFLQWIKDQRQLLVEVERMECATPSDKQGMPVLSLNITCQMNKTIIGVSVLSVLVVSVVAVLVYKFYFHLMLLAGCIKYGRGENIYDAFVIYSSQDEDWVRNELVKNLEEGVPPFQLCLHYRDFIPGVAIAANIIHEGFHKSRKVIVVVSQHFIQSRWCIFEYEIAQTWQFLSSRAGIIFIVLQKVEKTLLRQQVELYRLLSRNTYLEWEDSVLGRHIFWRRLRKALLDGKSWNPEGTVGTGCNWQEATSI

Chain of HMGB1 (P09429 whole entry): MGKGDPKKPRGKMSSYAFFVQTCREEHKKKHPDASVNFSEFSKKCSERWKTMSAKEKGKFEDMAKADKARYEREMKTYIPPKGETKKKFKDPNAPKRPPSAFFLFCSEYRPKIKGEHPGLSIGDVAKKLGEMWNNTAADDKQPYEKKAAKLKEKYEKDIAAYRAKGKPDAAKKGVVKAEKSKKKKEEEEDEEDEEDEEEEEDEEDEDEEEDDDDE
Chain of TLR4/MD2 (Homo sapiens) (O00206 24-839, chain 1 of 2): as the sequence (O00206 24-839) above
Chain of TLR4/MD2 (Homo sapiens) (Q9Y6Y9 19-160, chain 2 of 2, further chain): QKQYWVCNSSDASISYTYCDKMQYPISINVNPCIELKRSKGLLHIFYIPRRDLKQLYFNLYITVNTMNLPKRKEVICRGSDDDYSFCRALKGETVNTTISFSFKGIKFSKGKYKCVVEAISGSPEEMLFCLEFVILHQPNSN

Kd (TLR4/MD2 (Homo sapiens)): 420 nM
Kd (TLR4 (Homo sapiens)): 650 nM
Substance: HMGB1 (from UniProt P09429)
